Data from the supplement of paper PMC7125110.
± gives the standard error. For some assays here: Variants at the floor of the assay were thinned out.

B1: glmS ribozyme (parent)
chain: AUAAAAGCGCCAGAACUACAGAAAUGUAGUUGACGAGGAGGAGGUUUAUCGAAUUUUCGGCGGAUGCCUCCAAA

Assays:
Details in all cases: with glucosamine-6-phosphate
glucosamine-6-phosphate [1] = variants of: B1; assay: kcat; higher = faster cleavage; RNA array
Procedure, shortened: (§1)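 Glucosamine-6-phosphate, from 40 μM to 10 mM in HEPES/KCl/Mg(OAc)2 buffer, was flowed over sequenced MiSeq chips carrying barcoded ribozyme variants transcribed in situ by E. coli RNA polymerase. A hybridised Cy3 probe tracked the variants at 37 °C as tiles were imaged over ~14 h. kobs, kcat and KM were obtained by fitting normalised per-tile medians to exponential decays and then applying weighted Michaelis–Menten fits across concentrations.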

glucosamine-6-phosphate [2] = variants of: B1; assay: self-cleavage kobs at 40 uM GlcN6P; higher = faster cleavage; RNA array
Procedure, shortened: as §1

glucosamine-6-phosphate [3] = variants of: B1; assay: self-cleavage kobs at 10000 uM GlcN6P; higher = faster cleavage; RNA array
Procedure, shortened: as §1

glucosamine-6-phosphate [4] = variants of: B1; assay: KM; higher = weaker cofactor use; RNA array
Procedure, shortened: as §1

glucosamine-6-phosphate [5] = variants of: B1; assay: self-cleavage kobs at 160 uM GlcN6P; higher = faster cleavage; RNA array
Procedure, shortened: as §1

glucosamine-6-phosphate [6] = variants of: B1; assay: self-cleavage kobs at 640 uM GlcN6P; higher = faster cleavage; RNA array
Procedure, shortened: as §1

glucosamine-6-phosphate [7] = variants of: B1; assay: self-cleavage kobs at 2500 uM GlcN6P; higher = faster cleavage; RNA array
Procedure, shortened: as §1

Row | Variant | kcat (glucosamine-6-phosphate [1]) [s⁻¹] | self-cleavage kobs at 40 uM GlcN6P (glucosamine-6-phosphate [2]) [s⁻¹] | self-cleavage kobs at 10000 uM GlcN6P (glucosamine-6-phosphate [3]) [s⁻¹] | KM (glucosamine-6-phosphate [4]) [µM] | self-cleavage kobs at 160 uM GlcN6P (glucosamine-6-phosphate [5]) [s⁻¹] | self-cleavage kobs at 640 uM GlcN6P (glucosamine-6-phosphate [6]) [s⁻¹] | self-cleavage kobs at 2500 uM GlcN6P (glucosamine-6-phosphate [7]) [s⁻¹]
1 | U31C G37U G62C A64U C70A | < 1e-05 | < 1e-05 | < 1e-05 |  |  |  | 
2 | U31C A53U | 0.00494 ± 0.0007 | 9.39e-05 ± 8.5e-06 | 0.00421 ± 0.00036 | 2460 ± 510 | 0.000269 ± 4.7e-05 | 0.000925 ± 8.8e-05 | 0.00236 ± 0.00022
3 | U31C A53G | 0.00573 ± 0.0015 | 0.000158 ± 1.8e-05 | 0.00495 ± 0.00059 | 1960 ± 740 | 0.000305 ± 5.6e-05 | 0.00167 ± 0.00042 | 0.00309 ± 0.00042
4 | U31C U46G | 0.000788 ± 0.00029 |  | 0.000568 ± 7.8e-05 |  |  | 0.000198 ± 3.6e-05 | 0.000722 ± 0.00013
5 | U31C U46A | 0.000286 ± 7.3e-06 |  | 0.000234 ± 3.3e-05 | 2230 ± 110 |  | 6.31e-05 ± 9.4e-06 | 0.000152 ± 2.9e-05
6 | U31C U65A | 0.000435 ± 5.4e-05 |  | 0.000385 ± 5.2e-05 | 2000 ± 480 | 3.17e-05 ± 1.3e-05 | 0.000114 ± 1.8e-05 | 0.000217 ± 3.2e-05
7 | U31G A52G | 0.000431 ± 4.6e-05 |  | 0.000352 ± 4.6e-05 | 2820 ± 530 |  | 8.36e-05 ± 1.2e-05 | 0.000178 ± 3.1e-05
8 | U31A G44A | 0.00023 ± 5.7e-05 |  | 0.000151 ± 2.1e-05 | 4780 ± 2400 |  |  | 9.2e-05 ± 1.5e-05
9 | U31G G37U | < 1e-05 |  |  |  |  |  | 
10 | U30G A48G | < 1e-05 | < 1e-05 |  |  | < 1e-05 |  | 
11 | U31G C58A | 0.000195 ± 2.1e-05 |  | 0.000163 ± 1.7e-05 | 2240 ± 600 |  | 5.23e-05 ± 1.2e-05 | 9.47e-05 ± 1.4e-05
12 | U31A U57G | 4.33e-05 ± 3.3e-06 |  | 3.33e-05 ± 1.1e-05 | 2970 ± 780 |  |  | 
13 | U31C C71A | 0.000686 ± 0.00019 | 3.6e-05 ± 1.1e-05 | 0.00057 ± 7.8e-05 | 1470 ± 630 | 7.42e-05 ± 8.6e-06 | 0.00018 ± 1.9e-05 | 0.000669 ± 9.6e-05
14 | U31G G32C | 0.000616 ± 8.5e-05 |  | 0.000405 ± 8.2e-05 | 5520 ± 1100 |  | 6.65e-05 ± 1.1e-05 | 0.000186 ± 2.9e-05
15 | U31C C50U | < 1e-05 |  |  |  |  |  | 
16 | U31G G38U | < 1e-05 |  |  |  |  |  | 

Row | Variant | kcat (glucosamine-6-phosphate [1]) [s⁻¹] | self-cleavage kobs at 40 uM GlcN6P (glucosamine-6-phosphate [2]) [s⁻¹] | self-cleavage kobs at 10000 uM GlcN6P (glucosamine-6-phosphate [3]) [s⁻¹] | KM (glucosamine-6-phosphate [4]) [µM] | self-cleavage kobs at 160 uM GlcN6P (glucosamine-6-phosphate [5]) [s⁻¹] | self-cleavage kobs at 640 uM GlcN6P (glucosamine-6-phosphate [6]) [s⁻¹] | self-cleavage kobs at 2500 uM GlcN6P (glucosamine-6-phosphate [7]) [s⁻¹]
17 | U31A G41C | 0.000118 ± 1.6e-05 |  |  | 501 ± 200 |  | 6.84e-05 ± 1.6e-05 | 9.73e-05 ± 2.2e-05
18 | U31G C50U | 2.22e-05 ± 1.4e-06 | < 1e-05 |  |  |  |  | 
19 | U31G G40A | 0.00279 ± 0.00072 | 0.00011 ± 2.4e-05 | 0.00301 ± 0.00099 | 1460 ± 560 | 0.000269 ± 5.2e-05 | 0.000715 ± 0.00014 | 0.0018 ± 0.00027
20 | U31G G40U | 0.00241 ± 0.0003 | 3.85e-05 ± 7.6e-06 | 0.00183 ± 0.0002 | 2730 ± 500 | 0.000115 ± 1.6e-05 | 0.000515 ± 5.8e-05 | 0.00119 ± 0.00013
21 | U30G C50U | < 1e-05 |  |  |  | < 1e-05 |  | 
22 | U31A G66U | 0.000713 ± 5.1e-05 | 2.99e-05 ± 1.3e-05 | 0.000631 ± 7.6e-05 | 1380 ± 190 | 7.61e-05 ± 1.5e-05 | 0.000206 ± 3.9e-05 | 0.000466 ± 7.9e-05
23 | U31C C68G | 1.29e-05 ± 2.8e-06 |  |  |  |  |  | 
24 | U31C C67G | 4.05e-05 ± 1e-06 | < 1e-05 | 3.83e-05 ± 5.5e-06 | 467 ± 76 |  | 2.33e-05 ± 8.8e-06 | 3.49e-05 ± 6.3e-06
25 | U31C C67U | 0.00122 ± 0.00016 | 4.68e-05 ± 7.4e-06 | 0.00115 ± 0.00016 | 1290 ± 260 | 0.000125 ± 2e-05 | 0.000375 ± 4.8e-05 | 0.000785 ± 0.00011
26 | U31C G41U | 0.000175 ± 1.4e-05 |  | 0.000153 ± 2e-05 | 1350 ± 260 |  | 5.36e-05 ± 1e-05 | 0.000117 ± 1.7e-05
27 | U31A C67G | 0.000586 ± 0.00013 |  | 0.000456 ± 7.3e-05 | 3660 ± 1500 |  | 0.0001 ± 2.6e-05 | 0.000201 ± 4.4e-05
28 | U31A C58A | 0.00103 ± 0.00024 |  | 0.000242 ± 3.7e-05 |  |  |  | 
29 | U31C A39U | 0.00686 ± 0.0022 | 7.06e-05 ± 8.4e-06 | 0.00432 ± 0.00036 | 6250 ± 2600 | 0.000146 ± 1.5e-05 | 0.000692 ± 6.8e-05 | 0.00175 ± 0.00023
30 | U31A A39U | 0.0125 ± 0.0029 | 0.000161 ± 2.9e-05 | 0.00871 ± 0.0014 | 3370 ± 1000 | 0.000508 ± 8.4e-05 | 0.00196 ± 0.00029 | 0.00802 ± 0.0015
31 | U31A A39G | 0.0529 ± 0.014 | 0.000491 ± 7.7e-05 | 0.0363 ± 0.0095 | 4340 ± 1300 | 0.00202 ± 0.00038 | 0.00495 ± 0.0018 | 0.0245 ± 0.0078
32 | U31A A52G | 0.00103 ± 0.00022 |  | 0.000752 ± 7.9e-05 | 4620 ± 1600 | 4.63e-05 ± 1.3e-05 | 0.000142 ± 2.3e-05 | 0.000305 ± 4.3e-05
